Measurements reported in patent US20170204167A1 (INSTITUTE FOR RESEARCH IN BIOMEDICINE, published 2017).

Legend:
[1] = molecular target: HA of H12N5 A/duck/Alberta/60/76 on transfected 293 cells (influenza A virus H12N5 …, UniProt P03446 17-564); assay: staining of HA-transfected 293 cells
[2] = molecular target: HA of H14N5 A/mallard/Astrakhan/263/82 on transfected 293 cells (influenza A virus H14N5 …, UniProt P26136 18-568); assay: staining of HA-transfected 293 cells
[3] = molecular target: HA of H2N2 A/Singapore/1/57 (influenza A virus H2N2 A/Singapore/1/57, UniProt Q67333 16-525); assay: ELISA on recombinant or purified HA
[4] = molecular target: HA of H13N6 A/gull/Maryland/704/77 (ELISA antigen) (influenza A virus H13N6 …, UniProt P13103 19-532); assay: ELISA on recombinant or purified HA
[5] = molecular target: HA of H4N6 A/duck/Czechoslovakia/56 (ELISA antigen) (influenza A virus H4N6 …, UniProt P19696 17-527); assay: ELISA on recombinant or purified HA
[6] = molecular target: HA of H5 A/VN/1194/04 (influenza A virus H5 A/VN/1194/04); assay: cell-based or functional assay
[7] = molecular target: T1, HA of H7N1 A/ck/FPV/Rostock/34 (influenza A virus H7N1 …, UniProt P03459 19-563); assay: cell-based or functional assay
[8] = molecular target: HA of H5N1 A/WS/MONG/05 (influenza A virus H5N1 A/WS/MONG/05); assay: cell-based or functional assay
[9] = molecular target: HA of H5N1 A/HK/491/97 (influenza A virus H5N1 A/HK/491/97); assay: cell-based or functional assay
[10] = molecular target: HA of H5N1 A/INDO/5/05 (influenza A virus H5N1 A/INDO/5/05); assay: cell-based or functional assay
[11] = molecular target: T1, HA of H7N1 A/ck/FPV/Rostock/34; assay: cell-based or functional assay; remark: listed apart in the source
[12] = molecular target: HA of H5N1 A/AH/1/05 (influenza A virus H5N1 A/AH/1/05); assay: cell-based or functional assay
[13] = molecular target: HA of H5N1 A/HK/213/03 (influenza A virus H5N1 A/HK/213/03); assay: cell-based or functional assay
[14] = molecular target: HA of H7N1 A/ck/IT/13474/99 (influenza A virus H7N1 A/ck/IT/13474/99); assay: cell-based or functional assay
[15] = molecular target: HA of H1N1 A/PR/8/34 (influenza A virus H1N1 A/PR/8/34, UniProt P03452 18-565); assay: cell-based or functional assay

Binder	binding result [1]	binding result [2]	EC50 [3] [µg/mL]	EC50 [4] [µg/mL]	EC50 [5] [µg/mL]	Neutralization H5 A/VN/1194/04 IC50 (µg/ml), pseudovirus [6] [µg/mL]	Neutralization H7 A/ck/FPV Rostock/34 IC50 (µg/ml), pseudovirus [7] [µg/mL]	Neutralization of HA-pseudotypes (IC90, µg/ml) [8] [µg/mL]	Neutralization of HA-pseudotypes (IC90, µg/ml) [9] [µg/mL]	Neutralization of HA-pseudotypes (IC90, µg/ml) [10] [µg/mL]	Neutralization of HA-pseudotypes (IC90, µg/ml) [11] [µg/mL]	Neutralization of HA-pseudotypes (IC90, µg/ml) [12] [µg/mL]	Neutralization of HA-pseudotypes (IC90, µg/ml) [13] [µg/mL]	Neutralization of HA-pseudotypes (IC90, µg/ml) [14] [µg/mL]	Neutralization of infectious viruses (IC50, µg/ml) [15] [µg/mL]
FI6 variant 3 (antibody, V domains shown) VH: QVQLVESGGGVVQPGRSLRLSCAASGFTFSTYAMHWVRQAPGKGLEWVAVISYDANYKYYADSVKGRFTISRDNSKNTLYLQMNSLRAEDTAVYYCAKDSQLRSLLYFEWLSQGYFDYWGQGTLVTVSS VL: not shown	binds	binds	0.021	0.062	0.185	0.0035	0.0274								
FI6 variant 2 (antibody, V domains shown) VH: QVQLVQSGGGVVQPGRSLRLSCVASGFTFSTYAMHWVRQAPGRGLEWVAVISYDGNYKYYADSVKGRFSISRDNSNNTLHLEMNTLRTEDTALYYCAKDSQLRSLLYFEWLSQGYFDPWGQGTLVTVTS VL: DIQMTQSPDSLAVSLGARATINCKSSQSVTFNYKNYLAWYQQKPGQPPKVLIYWASARESGVPDRFSGSGSGTDFTLTISSLQAEDVAVYYCQQHYRTPPTFGQGTKVEIK	binds	binds	0.029	0.088		0.0054	0.02	0.03	0.07	0.31	0.09	0.05	0.02	1.87	2.2
FI28 variant 1 (antibody, V domains shown) VH: EVQLVESGGGAVQPGESLKLSCAASGFTFSNYGMHWVRQAPGKGLEWVAVISYDGSNKYYADSVKGRFTISRDNSKDTLYLQMNSLRAEDTALFYCAKERPLRLLRYFDWLSGGANDYWGQGTLVTVSS VL: DIVMTQSPDSLAVSLGERATINCKSSQSVLYSSNNKNYLAWYQQKPGQPPKLLIDWASTRESGVPDRFSGSGSGTDFTLTISNLQVEDVAVYYCQQYYRSPSFGQGTKLEIK								0.04	0.05	0.35	> 100	0.05	0.33	> 100	> 100
